Patent US20150250848A1 (TRUSTEES OF DARTMOUTH COLLEGE, published 2015)
Where no end group is shown, it is not given here. [ ]: non-standard residue; d: D form. The star is where a group is joined. Biotin = O=C1N[C@H]2[C@H](CS[C@H]2CCCCC(=O)*)N1; Ahx = NCCCCCC(=O)O

Key:
[1] = molecular target: T1, CAL PDZ domain (CALP) (UniProt Q9HD26 278-362); test: calculated from Ki values (FP); reference: the same peptide with N2P2
[2] = molecular target: T2, Tax-interacting protein-1 (TIP-1), recombinant, tag cleaved (UniProt O14907 1-124); test: FP displacement assay, reporter F*-iCAL36
T2 construct: Used for FP and crystallization; also called TIP-1 PDZ domain
T2 sequence (looked up): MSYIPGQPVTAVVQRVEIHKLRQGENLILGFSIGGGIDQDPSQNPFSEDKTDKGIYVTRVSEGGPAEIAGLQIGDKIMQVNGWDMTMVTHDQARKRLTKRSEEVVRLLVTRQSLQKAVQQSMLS

[3] = molecular target: T1, CAL PDZ domain (CALP); test: fluorescence polarization competition
[4] = molecular target: T1, CAL PDZ domain (CALP); test: FP competition assay
[5] = molecular target: T1, CAL PDZ domain (CALP); test: fluorescence polarization competition; reference: iCAL35 with CAL
Description: (§1) The experimental inhibitory constants of top- and poorly-ranked peptide sequences from the K* CAL-CFTR design were experimentally determined. […] The corresponding N-terminally acetylated peptides were purchased from NEO Bio-Science (Cambridge, Mass.) and the Kᵢ values for the peptides were detected using fluorescence polarization. Briefly, the CAL PDZ domain was incubated with a labeled peptide of known binding affinity. Each peptide inhibitor was serially diluted and the protein-peptide mixture was added to each dilution. Finally, the amount of competitive inhibition was tracked using residual fluorescence polarization.
(§2) The Kᵢ value for each peptide hexamer was determined using fluorescence polarization.

[6] = molecular target: T1, CAL PDZ domain (CALP); test: fluorescence polarization competition with a labeled peptide
Description: as §1, §2

[7] = molecular target: T1, CAL PDZ domain (CALP); test: fluorescence polarization competition; reference: wild-type CFTR sequence with CAL
Description: as §1, §2

[8] = molecular target: T1, CAL PDZ domain (CALP); test: fluorescence polarization; reference: iCAL42 with the CAL PDZ domain
[9] = molecular target: T1, CAL PDZ domain (CALP); test: calculated from Ki values (FP); reference: the same peptide with the highest affinity alternative among the NHERF and TIP-1 PDZ domains
[10] = molecular target: T2, Tax-interacting protein-1 (TIP-1), …; test: FP displacement assay
Description: (§3) For TIP-1 peptide array experiments, His₁₀ tagged (uncleaved) protein was used to facilitate quantitation.
In order to quantitate the impact of the P⁻⁵ Leu substitution and to assess inhibitory potential at high peptide concentrations, FP displacement assays were performed.

[11] = molecular target: T3, His10 tagged (uncleaved) TIP-1 (UniProt O14907 1-124); test: CombLib peptide array
T3 construct: also called TIP-1 (peptide array experiments); not shown: N-terminal His10 tag
T3 sequence: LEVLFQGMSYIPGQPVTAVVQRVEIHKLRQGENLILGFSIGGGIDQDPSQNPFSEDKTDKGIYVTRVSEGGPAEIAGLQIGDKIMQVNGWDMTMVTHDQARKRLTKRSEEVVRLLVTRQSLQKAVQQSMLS
Source text: as §3

[12] = molecular target: T1, CAL PDZ domain (CALP); test: calculated from Ki values (FP); reference: the same peptide with the NHERF PDZ domains
[13] = molecular target: T1, CAL PDZ domain (CALP); test: calculated from Ki values (FP); reference: the same peptide with TIP-1

Binder: ANGLMQTSKL [somatostatin receptor subtype 5 (SSR5) C-terminal peptide]
- ΔΔGCAL-best [1]: 0.418 kJ/mol
- Ki [2]: 130 µM

B1: iCAL35 (peptide)
peptide: Ac-WQTSII
notes: the corresponding N-terminally acetylated peptides were bought; also called WQTSII; best known peptide hexamer
- Ki [3]: 14.8 µM

B2: BT-iCAL42 (peptide)
peptide: Biotin-W[dR]FKKANSRLPTSII
notes: also called biotinylated analog of iCAL42
- Ki [4]: 9.2 µM

Binder: Ac-WQVTRV (also called WQVTRV) [kCAL01]
- fold improvement over iCAL35 [5]: 7 fold
- Ki [6]: 2.1 µM
- fold higher affinity [7]: 331 fold

B3: F*-iCAL42 (peptide)
peptide: {Fluorescein-Ahx}-ANSRLPTSII
notes: also called N-terminally fluoresceinated version of iCAL42
- fold enhancement in CAL affinity [8]: 5 fold

Binder: ANSRLPTSII (also called unlabeled iCAL42) [iCAL42]
- ΔΔG [9]: -10.5 kJ/mol
- binding result [10]: no binding (tested: up to millimolar peptide concentrations)
- binding result [11]: no binding

Binder: ANSRAPTSII [P^-5 alanine mutant of iCAL36 (ANSRAPTSII)]
- binding result [10]: no binding

Binder: ANSRWPTSII (also called PRC 36; iCa136) [iCAL36]
- ΔΔG [12]: -13.8 kJ/mol
- ΔΔG [13]: 4.18 kJ/mol
